According to the Immune Epitope Database (IEDB):

Columns and labels:
HLA-A*24:02 = experiment: IEDB peptide-MHC binding, purified MHC/direct/fluorescence; filed as Kd, often an IC50 or EC50 that approximates it; ≥ and ≤ were set here for values at or beyond the usual limits of such assays
HLA-A*02:01 [1] = experiment: IEDB peptide-MHC binding, purified MHC/competitive/radioactivity; ≥ and ≤ were set here for values at or beyond the usual limits of such assays
HLA-A*31:01 [2] = experiment: IEDB peptide-MHC binding, purified MHC/direct/fluorescence; filed as Kd, often an IC50 or EC50 that approximates it; ≥ and ≤ were set here for values at or beyond the usual limits of such assays; settings: source organism: Homo sapiens
HLA-B*07:02 [3] = experiment: as above
HLA-B*27:05 = experiment: as above; settings: source organism: Homo sapiens
HLA-C*14:02 = experiment: as above
HLA-B*51:01 [4] = experiment: as above
HLA-C*06:02 = experiment: as above
HLA-B*39:01 = experiment: IEDB peptide-MHC binding, purified MHC/competitive/fluorescence; filed as Kd, often an IC50 or EC50 that approximates it; ≥ and ≤ were set here for values at or beyond the usual limits of such assays
HLA-A*11:01 [5] = experiment: as above; settings: source organism: Influenza A virus (A/goose/Hong Kong/739.2/2002(H5N1))
HLA-A*02:01 [6] = experiment: as above
HLA-A*03:01 [7] = experiment: IEDB peptide-MHC binding, purified MHC/competitive/radioactivity; filed as Kd, often an IC50 or EC50 that approximates it; ≥ and ≤ were set here for values at or beyond the usual limits of such assays; settings: source organism: Vaccinia virus WR
HLA-A*11:01 [8] = experiment: as above; settings: source organism: Vaccinia virus WR
HLA-A*31:01 [9] = experiment: as above; settings: source organism: Vaccinia virus WR
HLA-A*33:01 = experiment: as above; settings: source organism: Vaccinia virus WR
HLA-A*68:01 = experiment: as above; settings: source organism: Vaccinia virus WR
HLA-B*07:02 [10] = experiment: as above; settings: source organism: Vaccinia virus WR
HLA-B*35:01 [11] = experiment: as above; settings: source organism: Vaccinia virus WR
HLA-B*51:01 [12] = experiment: as above; settings: source organism: Vaccinia virus WR
HLA-B*53:01 = experiment: as above; settings: source organism: Vaccinia virus WR
HLA-B*54:01 = experiment: as above; settings: source organism: Vaccinia virus WR
HLA-B*15:01 [13] = experiment: IEDB peptide-MHC binding, purified MHC/direct/fluorescence; filed as Kd, often an IC50 or EC50 that approximates it; ≥ and ≤ were set here for values at or beyond the usual limits of such assays
HLA-A*26:01 [14] = experiment: as above; settings: source organism: Mammarenavirus juninense
HLA-C*12:03 = experiment: as above; settings: source organism: Mammarenavirus machupoense
HLA-B*35:01 [15] = experiment: IEDB peptide-MHC binding, purified MHC/competitive/fluorescence; filed as Kd, often an IC50 or EC50 that approximates it; ≥ and ≤ were set here for values at or beyond the usual limits of such assays; settings: source organism: Mammarenavirus machupoense
HLA-A*02:01 [16] = experiment: IEDB peptide-MHC binding, purified MHC/direct/fluorescence; filed as Kd, often an IC50 or EC50 that approximates it; ≥ and ≤ were set here for values at or beyond the usual limits of such assays; settings: source organism: Camelpox virus M-96
HLA-A*69:01 [17] = experiment: as above; settings: source organism: Camelpox virus M-96
HLA-B*40:01 = experiment: as above; settings: source organism: Mycobacterium tuberculosis
HLA-A*02:12 [18] = experiment: IEDB peptide-MHC binding, purified MHC/competitive/fluorescence; filed as Kd, often an IC50 or EC50 that approximates it; ≥ and ≤ were set here for values at or beyond the usual limits of such assays; settings: source organism: Entamoeba histolytica HM-1:IMSS
HLA-A*02:03 = experiment: IEDB peptide-MHC binding, purified MHC/direct/fluorescence; filed as Kd, often an IC50 or EC50 that approximates it; ≥ and ≤ were set here for values at or beyond the usual limits of such assays; settings: source organism: Orthohantavirus andesense
HLA-A*02:11 = experiment: as above; settings: source organism: Orthohantavirus andesense
HLA-A*02:12 [19] = experiment: as above; settings: source organism: Orthohantavirus andesense
HLA-A*02:16 = experiment: as above; settings: source organism: Orthohantavirus andesense
HLA-A*02:19 = experiment: as above; settings: source organism: Orthohantavirus andesense
HLA-A*03:01 [20] = experiment: as above; settings: source organism: Orthohantavirus andesense
HLA-A*24:03 = experiment: as above; settings: source organism: Orthohantavirus andesense
HLA-A*29:02 = experiment: as above; settings: source organism: Orthohantavirus andesense
HLA-A*68:02 = experiment: as above; settings: source organism: Orthohantavirus andesense
HLA-A*26:01 [21] = experiment: IEDB peptide-MHC binding, purified MHC/competitive/fluorescence; filed as Kd, often an IC50 or EC50 that approximates it; ≥ and ≤ were set here for values at or beyond the usual limits of such assays; settings: source organism: Orthohantavirus andesense
HLA-A*69:01 [22] = experiment: as above; settings: source organism: Orthohantavirus andesense
HLA-B*15:01 [23] = experiment: as above; settings: source organism: Orthohantavirus andesense
HLA-B*18:01 = experiment: as above; settings: source organism: Orthohantavirus andesense
HLA-B*27:03 = experiment: as above; settings: source organism: Orthohantavirus andesense
HLA-B*46:01 = experiment: as above; settings: source organism: Orthohantavirus andesense
HLA-B*58:01 = experiment: as above; settings: source organism: Orthohantavirus andesense
[24] = source organism: Mycobacterium tuberculosis H37Ra
[25] = source organism: Bacillus anthracis str. A0488
[26] = source organism: Vaccinia virus GLV-1h68
[27] = source organism: Burkholderia mallei
[28] = source organism: Yersinia pestis CA88-4125
[29] = source organism: Yersinia pestis
[30] = source organism: Orthohantavirus andesense

Sequence: IYPEWYFLW
- Kd (HLA-A*24:02; source organism: Campylobacter jejuni subsp. jejuni 81116): ≤ 1 nM

Sequence: GLLGSPVRA
- IC50 (HLA-A*02:01 [1]; source organism: Homo sapiens): 219 nM

Sequence: RYFSVTRPL
- Kd (HLA-A*31:01 [2]): 512 nM
- Kd (HLA-B*07:02 [3]; source organism: Homo sapiens): ≥ 27600 nM
- Kd (HLA-B*27:05): 10600 nM
- Kd (HLA-C*14:02; source organism: Anopheles gambiae str. PEST): ≤ 1 nM

Sequence: GPAEARKVC
- Kd (HLA-B*51:01 [4]; source organism: Yellow fever virus): ≥ 20000 nM

Sequence: KFITHPFLW
- Kd (HLA-A*24:02; source organism: Entamoeba histolytica HM-1:IMSS): ≤ 1 nM

Sequence: GLIDIAPHQI
- IC50 (HLA-A*02:01 [1]; [24]): 49 nM

Sequence: LRHSTAHLL
- Kd (HLA-C*06:02; [25]): 13 nM
- Kd (HLA-B*39:01; [25]): 71.3 nM

Sequence: ASYKIFRIEK
- Kd (HLA-A*11:01 [5]): 0.9 nM

Sequence: LMYDIINSV
- Kd (HLA-C*06:02; [26]): 4440 nM
- Kd (HLA-A*02:01 [6]; [26]): 0.6 nM
- Kd (HLA-A*03:01 [7]): ≥ 35100 nM
- Kd (HLA-A*11:01 [8]): 1300 nM
- Kd (HLA-A*31:01 [9]): 4520 nM
- Kd (HLA-A*33:01): ≥ 20300 nM
- Kd (HLA-A*68:01): ≥ 77700 nM
- Kd (HLA-B*07:02 [10]): ≥ 77500 nM
- Kd (HLA-B*35:01 [11]): ≥ 77400 nM
- Kd (HLA-B*51:01 [12]): ≥ 54500 nM
- Kd (HLA-B*53:01): ≥ 78200 nM
- Kd (HLA-B*54:01): 258 nM

Sequence: NPVDGSIWY
- Kd (HLA-B*07:02 [3]; [27]): ≥ 20000 nM
- Kd (HLA-B*15:01 [13]; source organism: Burkholderia mallei ATCC 23344): ≥ 20000 nM
- Kd (HLA-B*51:01 [4]; [27]): ≥ 20000 nM

Sequence: LNTSAGFPYV
- IC50 (HLA-A*02:01 [1]; source organism: Rhinovirus C): 500 nM

Sequence: DAMPGVLSY
- Kd (HLA-A*26:01 [14]): 2.1 nM
- Kd (HLA-C*12:03): ≥ 20000 nM
- Kd (HLA-B*35:01 [15]): 0.5 nM

Sequence: VLSEWLPVT
- IC50 (HLA-A*02:01 [1]; source organism: Rift Valley fever virus): 15 nM

Sequence: ALDGGNKHFL
- IC50 (HLA-A*02:01 [1]; source organism: Homo sapiens): 41.7 nM

Sequence: TFAWASFLW
- Kd (HLA-A*24:02; [28]): 3 nM

Sequence: YLMPYSVYI
- Kd (HLA-A*02:01 [16]): ≤ 1 nM
- Kd (HLA-A*69:01 [17]): ≤ 1 nM
- Kd (HLA-C*06:02; source organism: Variola virus): 7 nM

Sequence: TPFEVETRL
- Kd (HLA-B*07:02 [3]; [29]): 836 nM
- Kd (HLA-B*15:01 [13]; [28]): ≥ 20000 nM
- Kd (HLA-B*51:01 [4]; [29]): ≥ 20000 nM

Sequence: AEAASATPL
- Kd (HLA-B*40:01): 21.9 nM
- Kd (HLA-C*14:02; [24]): ≥ 20000 nM

Sequence: NQNDNEETV
- Kd (HLA-A*02:12 [18]): 40.4 nM

Sequence: NALEKALRW
- Kd (HLA-A*02:03): ≥ 20000 nM
- Kd (HLA-A*02:11): ≥ 20000 nM
- Kd (HLA-A*02:12 [19]): ≥ 20000 nM
- Kd (HLA-A*02:16): ≥ 20000 nM
- Kd (HLA-A*02:19): ≥ 20000 nM
- Kd (HLA-A*03:01 [20]): ≥ 20000 nM
- Kd (HLA-A*24:03): ≥ 20000 nM
- Kd (HLA-A*29:02): ≥ 20000 nM
- Kd (HLA-A*68:02): ≥ 20000 nM
- Kd (HLA-A*02:01 [6]; [30]): ≥ 20000 nM
- Kd (HLA-A*26:01 [21]): ≥ 20000 nM
- Kd (HLA-A*69:01 [22]): ≥ 20000 nM
- Kd (HLA-B*15:01 [23]): ≥ 20000 nM
- Kd (HLA-B*18:01): ≥ 20000 nM
- Kd (HLA-B*27:03): ≥ 20000 nM
- Kd (HLA-B*39:01; [30]): ≥ 20000 nM
- Kd (HLA-B*46:01): ≥ 20000 nM
- Kd (HLA-B*58:01): 25.5 nM
